Reference: PMC8782398
Where “and” joins values, the source holds several entries; their conditions need not be identical. Equal entries are not always repeated.

T1: human delta opioid peptide (DOP) receptor in CHO cells (human), P41143
T1 chain: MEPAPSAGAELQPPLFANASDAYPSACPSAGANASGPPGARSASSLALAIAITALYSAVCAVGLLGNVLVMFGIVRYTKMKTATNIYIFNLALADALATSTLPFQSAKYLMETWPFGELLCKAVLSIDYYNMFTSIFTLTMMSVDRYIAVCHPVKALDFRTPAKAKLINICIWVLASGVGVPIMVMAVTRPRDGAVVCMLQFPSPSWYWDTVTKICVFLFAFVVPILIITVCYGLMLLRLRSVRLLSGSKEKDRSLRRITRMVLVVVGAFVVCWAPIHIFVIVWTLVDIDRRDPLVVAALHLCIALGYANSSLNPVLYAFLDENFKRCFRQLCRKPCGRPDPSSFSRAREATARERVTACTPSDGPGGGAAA

B1: Dermorphin (peptide)
chain: YAFGYPS
modifications: not checked
B2: Dermorphin-Nociceptin/Orphanin FQ (DeNO) (peptide)
chain 1: YAFGYPS
chain 2: FGGFTGARKSARKLANQC
modifications: not checked
B3: Dermorphin-UFP101 (De101) (peptide)
chain 1: YAFGYPS
chain 2: FGGFTGARKSARKRKNQC
modifications: not checked

What was measured:
[1] = target: T2, human mu opioid peptide (MOP) receptor in CHO cells (human), P35372
[2] = target: human MOP receptor in HEK293 cells (human), P35372
[3] = target: human MOP receptor in HEK293 cells (human), P35372; assay: radioligand binding
[4] = target: T1, human delta opioid peptide (DOP) …; assay: radioligand binding
[5] = target: T2, human mu opioid peptide (MOP) receptor …; assay: radioligand binding
[6] = target: human KOP receptor in CHO cells (human), P41145; assay: radioligand binding
Chain of human KOP receptor in CHO cells (human), P41145 (P41145 whole entry): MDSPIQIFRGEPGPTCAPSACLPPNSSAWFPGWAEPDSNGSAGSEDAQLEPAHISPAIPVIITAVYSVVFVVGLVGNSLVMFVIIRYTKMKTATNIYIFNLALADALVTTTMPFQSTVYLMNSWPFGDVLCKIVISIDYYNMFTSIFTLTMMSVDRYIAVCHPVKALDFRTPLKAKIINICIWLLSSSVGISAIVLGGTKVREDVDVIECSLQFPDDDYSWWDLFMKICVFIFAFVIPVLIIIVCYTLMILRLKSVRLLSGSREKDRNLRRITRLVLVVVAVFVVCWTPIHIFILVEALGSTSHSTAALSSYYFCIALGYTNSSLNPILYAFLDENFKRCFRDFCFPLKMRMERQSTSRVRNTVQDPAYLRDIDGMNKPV

T2 sequence (P35372 whole entry): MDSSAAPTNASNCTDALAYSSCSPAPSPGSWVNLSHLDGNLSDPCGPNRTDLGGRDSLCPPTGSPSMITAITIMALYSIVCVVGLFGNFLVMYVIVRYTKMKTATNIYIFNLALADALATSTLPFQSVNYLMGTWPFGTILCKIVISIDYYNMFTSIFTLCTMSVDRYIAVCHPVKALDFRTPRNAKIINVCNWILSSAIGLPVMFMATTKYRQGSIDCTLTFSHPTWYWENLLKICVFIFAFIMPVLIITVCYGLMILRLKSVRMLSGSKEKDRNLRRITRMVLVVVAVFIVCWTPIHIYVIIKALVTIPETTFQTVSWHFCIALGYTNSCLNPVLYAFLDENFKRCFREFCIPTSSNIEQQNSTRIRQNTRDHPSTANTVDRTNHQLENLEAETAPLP
Chain of human MOP receptor in HEK293 cells (human), P35372 (P35372 whole entry): as above

Binder	GTPγ[35S] binding, CHOMOP membranes: maximal response (stimulation factor) (stimulation factor) [1]	GTPγ[35S] binding, HEKMOP membranes: Emax (stimulation factor) (stimulation factor) [2]	inhibition of forskolin-stimulated cAMP formation, HEKMOP cells: Emax (% inhibition) [2]	other [3]	other [4]	other [5]	other [6]
B1	2.63	1.43	75.6%				
B2		1.53	77.3%	9 and 8.44			
B3	2.71	1.44	73.3%	9.28 and 8.63	7.95	9.64	7.61
